Results published in IntAct's records for PubMed 18725399.

B1: U3 small nucleolar RNA-associated protein 6 (Saccharomyces cerevisiae), Q02354 (parent)
chain: MSKTRYYLEQCIPEMDDLVEKGLFTKNEVSLIMKKRTDFEHRLNSRGSSINDYIKYINYESNVNKLRAKRCKRILQVKKTNSLSDWSIQQRIGFIYQRGTNKFPQDLKFWAMYLNYMKARGNQTSYKKIHNIYNQLLKLHPTNVDIWISCAKYEYEVHANFKSCRNIFQNGLRFNPDVPKLWYEYVKFELNFITKLINRRKVMGLINEREQELDMQNEQKNNQAPDEEKSHLQVPSTGDSMKDKLNELPEADISVLGNAETNPALRGDIALTIFDVCMKTLGKHYINKHKGYYAISDSKMNIELNKETLNYLFSESLRYIKLFDEFLDLERDYLINHVLQFWKNDMYDLSLRKDLPELYLKTVMIDITLNIRYMPVEKLDIDQLQLSVKKYFAYISKLDSASVKSLKNEYRSYLQDNYLKKMNAEDDPRYKILDLIISKL
partner: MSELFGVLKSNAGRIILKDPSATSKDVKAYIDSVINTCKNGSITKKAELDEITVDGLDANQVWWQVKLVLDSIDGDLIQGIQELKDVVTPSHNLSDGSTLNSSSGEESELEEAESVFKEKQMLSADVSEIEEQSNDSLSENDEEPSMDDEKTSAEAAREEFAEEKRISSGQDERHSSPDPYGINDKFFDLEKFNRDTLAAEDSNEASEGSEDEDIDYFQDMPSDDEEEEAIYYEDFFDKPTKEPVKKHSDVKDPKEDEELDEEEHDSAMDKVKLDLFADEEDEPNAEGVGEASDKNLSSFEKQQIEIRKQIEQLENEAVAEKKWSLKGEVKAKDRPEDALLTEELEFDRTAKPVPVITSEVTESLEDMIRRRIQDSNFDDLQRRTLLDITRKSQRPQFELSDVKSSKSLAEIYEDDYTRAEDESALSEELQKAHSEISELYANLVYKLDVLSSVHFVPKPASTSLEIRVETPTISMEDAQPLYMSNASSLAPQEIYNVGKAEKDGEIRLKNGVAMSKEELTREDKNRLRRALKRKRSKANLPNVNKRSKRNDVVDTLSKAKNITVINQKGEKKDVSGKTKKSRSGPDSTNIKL
B2: U3 small nucleolar RNA-associated protein 6 (Saccharomyces cerevisiae), Q02354 (parent)
chain: B1 chain
partner: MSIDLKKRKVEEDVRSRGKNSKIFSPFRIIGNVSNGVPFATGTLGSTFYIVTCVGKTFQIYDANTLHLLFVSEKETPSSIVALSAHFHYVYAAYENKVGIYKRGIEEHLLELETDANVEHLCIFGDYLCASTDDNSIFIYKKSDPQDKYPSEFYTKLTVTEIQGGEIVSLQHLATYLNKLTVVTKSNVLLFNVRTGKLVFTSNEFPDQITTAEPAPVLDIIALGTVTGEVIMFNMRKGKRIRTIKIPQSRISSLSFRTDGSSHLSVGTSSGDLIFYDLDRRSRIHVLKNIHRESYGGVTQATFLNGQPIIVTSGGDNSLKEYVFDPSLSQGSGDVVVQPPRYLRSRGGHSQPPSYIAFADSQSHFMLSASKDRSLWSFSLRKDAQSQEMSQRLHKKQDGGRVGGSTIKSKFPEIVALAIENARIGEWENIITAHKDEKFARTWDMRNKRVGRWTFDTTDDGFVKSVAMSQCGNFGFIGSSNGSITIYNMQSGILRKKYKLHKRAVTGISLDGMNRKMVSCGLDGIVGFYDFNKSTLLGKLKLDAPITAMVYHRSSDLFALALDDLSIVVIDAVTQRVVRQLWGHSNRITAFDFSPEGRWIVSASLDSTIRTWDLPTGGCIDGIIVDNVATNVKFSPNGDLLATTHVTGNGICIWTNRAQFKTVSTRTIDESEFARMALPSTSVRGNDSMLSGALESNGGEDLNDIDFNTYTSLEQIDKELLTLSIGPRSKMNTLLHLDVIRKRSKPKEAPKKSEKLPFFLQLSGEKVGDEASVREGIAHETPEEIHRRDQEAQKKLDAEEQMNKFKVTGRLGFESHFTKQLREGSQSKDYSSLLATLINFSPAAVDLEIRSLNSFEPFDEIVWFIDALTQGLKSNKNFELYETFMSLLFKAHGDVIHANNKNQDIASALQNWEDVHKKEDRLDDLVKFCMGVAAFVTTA

Variants of: B1
Details: with mpp10_yeast MPP10, P47083

| Variant | effect of a mutation on the interaction |
| --- | --- |
| G99E | decreasing interaction |

Variants of: B2
Details: with utp21_yeast UTP21, Q06078

| Variant | effect of a mutation on the interaction |
| --- | --- |
| G99E | disrupting interaction |
